Patent publication US20160264649A1

Key:
Experiment in all cases: cell-based or functional assay
[1] = molecular target: HIV-1 Env of isolate MGRM-D-026 (subtype D) (HIV-1)
[2] = molecular target: HIV-1 Env of isolate MGRM-F1-008 (subtype F) (HIV-1)
[3] = molecular target: HIV-1 Env of isolate MGRM-F1-004 (subtype F) (HIV-1)
[4] = molecular target: HIV-1 Env of pseudovirus isolate MGRM-G-027 (subtype G) (HIV-1)
[5] = molecular target: HIV-1 Env of isolate MGRM-D-019 (subtype D) (HIV-1)
[6] = molecular target: HIV-1 Env of isolate MGRM-D-028 (subtype D) (HIV-1)
[7] = molecular target: HIV-1 Env of pseudovirus isolate MGRM-G-017 (subtype G) (HIV-1)
[8] = molecular target: HIV-1 Env of isolate MGRM-F1-021 (subtype F) (HIV-1)
[9] = molecular target: HIV-1 Env of isolate MGRM-D-016 (subtype D) (HIV-1)
[10] = molecular target: HIV-1 Env of pseudovirus isolate MGRM-G-006 (subtype G) (HIV-1)
[11] = molecular target: HIV-1 Env of isolate MGRM-D-021 (subtype D) (HIV-1)
[12] = molecular target: HIV-1 Env of isolate MGRM-D-020 (subtype D) (HIV-1)
[13] = molecular target: HIV-1 Env of isolate 98CN009 (subtype CRF07_BC) (HIV-1)
[14] = molecular target: HIV-1 Env of isolate MGRM-F1-020 (subtype F) (HIV-1)
[15] = molecular target: HIV-1 Env of isolate 92UG046 (subtype D) (HIV-1)
[16] = molecular target: HIV-1 Env of isolate 98CN006 (subtype CRF08_BC) (HIV-1)
[17] = molecular target: HIV-1 Env of pseudovirus isolate MGRM-G-028 (subtype G) (HIV-1)
[18] = molecular target: HIV-1 Env of pseudovirus isolate MGRM-G-013 (subtype G) (HIV-1)
[19] = molecular target: HIV-1 Env of isolate MGRM-F1-015 (subtype F) (HIV-1)
[20] = molecular target: HIV-1 Env of pseudovirus isolate MGRM-G-025 (subtype G) (HIV-1)
[21] = molecular target: HIV-1 Env of isolate MGRM-D-001 (subtype D) (HIV-1)
[22] = molecular target: HIV-1 Env of pseudovirus isolate MGRM-G-014 (subtype G) (HIV-1)
[23] = molecular target: HIV-1 Env of isolate MGRM-D-018 (subtype D) (HIV-1)
[24] = molecular target: HIV-1 Env of isolate MGRM-D-029 (subtype D) (HIV-1)
[25] = molecular target: HIV-1 Env of isolate MGRM-F1-012 (subtype F) (HIV-1)
[26] = molecular target: HIV-1 Env of isolate MGRM-D-002 (subtype D) (HIV-1)
[27] = molecular target: HIV-1 Env of isolate MGRM-D-005 (subtype D) (HIV-1)
[28] = molecular target: envelope of aMLV pseudovirus (negative control)
[29] = molecular target: HIV-1 Env of isolate MGRM-D-011 (subtype D) (HIV-1)
[30] = molecular target: HIV-1 Env of isolate MGRM-D-008 (subtype D) (HIV-1)
[31] = molecular target: HIV-1 Env of isolate 92UG024 (subtype D) (HIV-1)
[32] = molecular target: HIV-1 Env of isolate MGRM-F1-016 (subtype F) (HIV-1)
[33] = molecular target: HIV-1 Env of isolate MGRM-F1-018 (subtype F) (HIV-1)
[34] = molecular target: HIV-1 Env of isolate 92UG005 (subtype D) (HIV-1)
[35] = molecular target: HIV-1 Env of pseudovirus isolate MGRM-G-004 (subtype G) (HIV-1)
[36] = molecular target: HIV-1 Env of pseudovirus isolate MGRM-G-019 (subtype G) (HIV-1)
[37] = molecular target: HIV-1 Env of pseudovirus isolate MGRM-G-016 (subtype G) (HIV-1)
[38] = molecular target: HIV-1 Env of isolate MGRM-D-022 (subtype D) (HIV-1)
[39] = molecular target: HIV-1 Env of isolate MGRM-F1-013 (subtype F) (HIV-1)
[40] = molecular target: HIV-1 Env of pseudovirus isolate MGRM-G-015 (subtype G) (HIV-1)
[41] = molecular target: HIV-1 Env of isolate MGRM-F1-017 (subtype F) (HIV-1)
[42] = molecular target: HIV-1 Env of isolate 92UG114 (subtype D) (HIV-1)
[43] = molecular target: HIV-1 Env of isolate MGRM-D-024 (subtype D) (HIV-1)
[44] = molecular target: HIV-1 Env of isolate MGRM-D-004 (subtype D) (HIV-1)
[45] = molecular target: HIV-1 Env of isolate 92UG001 (subtype D) (HIV-1)
[46] = molecular target: HIV-1 Env of isolate MGRM-D-012 (subtype D) (HIV-1)
[47] = molecular target: HIV-1 Env of pseudovirus isolate MGRM-G-011 (subtype G) (HIV-1)
[48] = molecular target: HIV-1 Env of isolate MGRM-D-014 (subtype D) (HIV-1)
[49] = molecular target: HIV-1 Env of isolate MGRM-F1-014 (subtype F) (HIV-1)
[50] = molecular target: HIV-1 Env of isolate MGRM-D-003 (subtype D) (HIV-1)
[51] = molecular target: HIV-1 Env of isolate MGRM-D-013 (subtype D) (HIV-1)
[52] = molecular target: HIV-1 Env of isolate MGRM-F1-022 (subtype F) (HIV-1)
[53] = molecular target: HIV-1 Env of pseudovirus isolate MGRM-G-009 (subtype G) (HIV-1)
[54] = molecular target: HIV-1 Env of isolate MGRM-F1-023 (subtype F) (HIV-1)
[55] = molecular target: HIV-1 Env of isolate MGRM-F1-006 (subtype F) (HIV-1)
[56] = molecular target: HIV-1 Env of isolate MGRM-F1-010 (subtype F) (HIV-1)
[57] = molecular target: HIV-1 Env of pseudovirus isolate MGRM-G-024 (subtype G) (HIV-1)
[58] = molecular target: HIV-1 Env of pseudovirus isolate MGRM-G-001 (subtype G) (HIV-1)

B1: PGT-125 (antibody, V domains shown)
VH: QSQLQESGPRLVEASETLSLTCNVSGESTGACTYFWGWVRQAPGKGLEWIGSLSHCQSFWGSGWTFHNPSLKSRLTISLDTPKNQVFLKLTSLTAADTATYYCARFDGEVLVYNHWPKPAWVDLWGRGIPVTVSS
VL: QSALTQPPSASGSPGQSITISCNGTATNFVSWYQQFPDKAPKLIIFGVDKRPPGVPDRFSGSRSGTTASLTVSRLQTDDEAVYYCGSLVGNWDVIFGGGTTLTVL
[1]
  IC50 (neutralization): > 50 µg/mL
[2]
  IC50 (neutralization): > 50 µg/mL
[3]
  IC50 (neutralization): 0.035 µg/mL
[4]
  IC50: 34.4 µg/mL
[5]
  IC50 (neutralization): > 50 µg/mL
[6]
  IC50 (neutralization): > 50 µg/mL
[7]
  IC50: > 50 µg/mL
[8]
  IC50 (neutralization): > 50 µg/mL
[9]
  IC50 (neutralization): > 50 µg/mL
[10]
  IC50: > 50 µg/mL
[11]
  IC50 (neutralization): 0.04 µg/mL
[12]
  IC50 (neutralization): 0.015 µg/mL
[13]
  IC50 (neutralization): 0.03 µg/mL
[14]
  IC50 (neutralization): > 50 µg/mL
[15]
  IC50 (neutralization): > 50 µg/mL
[16]
  IC50 (neutralization): 0.201 µg/mL
[17]
  IC50: 0.012 µg/mL
[18]
  IC50: > 50 µg/mL
[19]
  IC50 (neutralization): > 50 µg/mL
[20]
  IC50: > 50 µg/mL
[21]
  IC50 (neutralization): 2.84 µg/mL
[22]
  IC50: 0.007 µg/mL
[23]
  IC50 (neutralization): 0.049 µg/mL
[24]
  IC50 (neutralization): > 50 µg/mL
[25]
  IC50 (neutralization): > 50 µg/mL
[26]
  IC50 (neutralization): 0.118 µg/mL
[27]
  IC50 (neutralization): > 50 µg/mL
[28]
  IC50: > 50 µg/mL
[29]
  IC50 (neutralization): 0.008 µg/mL
[30]
  IC50 (neutralization): > 50 µg/mL
[31]
  IC50 (neutralization): > 50 µg/mL
[32]
  IC50 (neutralization): > 50 µg/mL
[33]
  IC50 (neutralization): > 50 µg/mL
[34]
  IC50 (neutralization): > 50 µg/mL
[35]
  IC50: > 50 µg/mL
[36]
  IC50: > 50 µg/mL
[37]
  IC50: > 50 µg/mL
[38]
  IC50 (neutralization): > 50 µg/mL
[39]
  IC50 (neutralization): > 50 µg/mL
[40]
  IC50: > 50 µg/mL
[41]
  IC50 (neutralization): > 50 µg/mL
[42]
  IC50 (neutralization): 0.349 µg/mL
[43]
  IC50 (neutralization): > 50 µg/mL
[44]
  IC50 (neutralization): 0.371 µg/mL
[45]
  IC50 (neutralization): > 50 µg/mL
[46]
  IC50 (neutralization): > 50 µg/mL
[47]
  IC50: > 50 µg/mL
[48]
  IC50 (neutralization): 0.12 µg/mL
[49]
  IC50 (neutralization): > 50 µg/mL
[50]
  IC50 (neutralization): 0.065 µg/mL
[51]
  IC50 (neutralization): > 50 µg/mL
[52]
  IC50 (neutralization): > 50 µg/mL
[53]
  IC50: > 50 µg/mL
[54]
  IC50 (neutralization): 0.012 µg/mL
[55]
  IC50 (neutralization): 0.361 µg/mL
[56]
  IC50 (neutralization): > 50 µg/mL
[57]
  IC50: > 50 µg/mL
[58]
  IC50: 0.033 µg/mL

B2: PGT-123 (antibody, V domains shown)
VH: QLHLQESGPGLVKPPETLSLTCSVSGASINDAYWSWIRQSPGKRPEWVGYVHHSGDTNYNPSLKRRVTFSLDTAKNEVSLKLVDLTAADSATYFCARALHGKRIYGIVALGELFTYFYMDVWGKGTAVTVSS
VL: SSMSVSPGETAKISCGKESIGSRAVQWYQQKPGQPPSLIIYNNQDRPAGVPERFSASPDFRPGTTATLTITNVDAEDEADYYCHIYDARGGTNWVFDRGTTLTVL
[1]
  IC50 (neutralization): > 50 µg/mL
[2]
  IC50 (neutralization): > 50 µg/mL
[3]
  IC50 (neutralization): 1.78 µg/mL
[4]
  IC50: 0.182 µg/mL
[5]
  IC50 (neutralization): > 50 µg/mL
[6]
  IC50 (neutralization): 0.132 µg/mL
[7]
  IC50: 0.026 µg/mL
[8]
  IC50 (neutralization): 0.307 µg/mL
[9]
  IC50 (neutralization): > 50 µg/mL
[10]
  IC50: > 50 µg/mL
[11]
  IC50 (neutralization): 11.1 µg/mL
[12]
  IC50 (neutralization): 0.018 µg/mL
[13]
  IC50 (neutralization): 0.007 µg/mL
[14]
  IC50 (neutralization): 0.051 µg/mL
[15]
  IC50 (neutralization): > 50 µg/mL
[16]
  IC50 (neutralization): 0.008 µg/mL
[17]
  IC50: 0.008 µg/mL
[18]
  IC50: 3.97 µg/mL
[19]
  IC50 (neutralization): > 50 µg/mL
[20]
  IC50: 0.046 µg/mL
[21]
  IC50 (neutralization): 0.147 µg/mL
[22]
  IC50: 0.005 µg/mL
[23]
  IC50 (neutralization): 0.007 µg/mL
[24]
  IC50 (neutralization): > 50 µg/mL
[25]
  IC50 (neutralization): 22.2 µg/mL
[26]
  IC50 (neutralization): 0.012 µg/mL
[27]
  IC50 (neutralization): > 50 µg/mL
[28]
  IC50: > 50 µg/mL
[29]
  IC50 (neutralization): 0.012 µg/mL
[30]
  IC50 (neutralization): > 50 µg/mL
[31]
  IC50 (neutralization): > 50 µg/mL
[32]
  IC50 (neutralization): 4.95 µg/mL
[33]
  IC50 (neutralization): 0.054 µg/mL
[34]
  IC50 (neutralization): 9.79 µg/mL
[35]
  IC50: 0.181 µg/mL
[36]
  IC50: 0.008 µg/mL
[37]
  IC50: > 50 µg/mL
[38]
  IC50 (neutralization): > 50 µg/mL
[39]
  IC50 (neutralization): 0.08 µg/mL
[40]
  IC50: > 50 µg/mL
[41]
  IC50 (neutralization): > 50 µg/mL
[42]
  IC50 (neutralization): 0.005 µg/mL
[43]
  IC50 (neutralization): 0.023 µg/mL
[44]
  IC50 (neutralization): > 50 µg/mL
[45]
  IC50 (neutralization): > 50 µg/mL
[46]
  IC50 (neutralization): > 50 µg/mL
[47]
  IC50: 14.9 µg/mL
[48]
  IC50 (neutralization): 0.009 µg/mL
[49]
  IC50 (neutralization): 0.111 µg/mL
[50]
  IC50 (neutralization): 3.74 µg/mL
[51]
  IC50 (neutralization): > 50 µg/mL
[52]
  IC50 (neutralization): 0.075 µg/mL
[53]
  IC50: 33.5 µg/mL
[54]
  IC50 (neutralization): 0.053 µg/mL
[55]
  IC50 (neutralization): 6.89 µg/mL
[56]
  IC50 (neutralization): 0.016 µg/mL
[57]
  IC50: 0.032 µg/mL
[58]
  IC50: 0.009 µg/mL
